B1: WT Pygo: overexpressed wild-type HA-tagged Drosophila Pygo (protein, UniProt Q9V9W8 1-815, looked up)
Protein pygopus: MTHNLGMAPYRLPGPAGGLCPPDFKPPPPTDIISAPSNPKKRRKTSSAANSAAAVAAAAAAAAAANSMQQQQAPPTPQDLLPPPPMGGFGDTIIASNPFDDSPQVSAMSSSAAAAMAAMNQMGGGPGGGHFGGGGPGGHPHWEDRMGMGGGPPPPPHMHPHMHPHHPGGPMGHPHGPHPHMGGPPPMRGMSPMHPHQMGPGPGVGLPPHMNHGRPGGPGGPGGPVPMGSPMGGIAGMGGMSPMGGMGGPSISPHHMGMGGLSPMGGGPNGPNPRAMQGSPMGGPGQNSPMNSLPMGSPMGNPIGSPLGPPSGPGPGNPGNTGGPQQQQQQPPQPPMNNGQMGPPPLHSPLGNGPTGHGSHMPGGPIPGPGPGPGGLVGPGGISPAHGNNPGGSGNNMLGGNPGGGNSNNNGSNTSNASNNNQNPHLSPAAGRLGVPTSMQSNGPSVSSVASSSVPSPATPTLTPTSTATSMSTSVPTSSPAPPAMSPHHSLNSAGPSPGMPNSGPSPLQSPAGPNGPNNNNSNNNNGPMMGQMIPNAVPMQHQQHMGGGPPGHGPGPMPGMGMNQMLPPQQPSHLGPPHPNMMNHPHHPHHHPGGPPPHMMGGPGMHGGPAGMPPHMGGGPNPHMMGGPHGNAGPHMGHGHMGGVPGPGPGPGGMNGPPHPHMSPHHGHPHHHHNPMGGPGPNMFGGGGGGPMGPGGPMGNMGPMGGGPMGGPMGVGPKPMTMGGGKMYPPGQPMVFNPQNPNAPPIYPCGMCHKEVNDNDEAVFCESGCNFFFHRTCVGLTEAAFQMLNKEVFAEWCCDKCVSSKHIPMVKFKC
modifications: HA tag
B2: Pygo-V757E: HA-tagged Drosophila Pygo with point mutation in V757 (in EVND) (protein, UniProt Q9V9W8 1-815, looked up, variant V757E)
Protein pygopus: MTHNLGMAPYRLPGPAGGLCPPDFKPPPPTDIISAPSNPKKRRKTSSAANSAAAVAAAAAAAAAANSMQQQQAPPTPQDLLPPPPMGGFGDTIIASNPFDDSPQVSAMSSSAAAAMAAMNQMGGGPGGGHFGGGGPGGHPHWEDRMGMGGGPPPPPHMHPHMHPHHPGGPMGHPHGPHPHMGGPPPMRGMSPMHPHQMGPGPGVGLPPHMNHGRPGGPGGPGGPVPMGSPMGGIAGMGGMSPMGGMGGPSISPHHMGMGGLSPMGGGPNGPNPRAMQGSPMGGPGQNSPMNSLPMGSPMGNPIGSPLGPPSGPGPGNPGNTGGPQQQQQQPPQPPMNNGQMGPPPLHSPLGNGPTGHGSHMPGGPIPGPGPGPGGLVGPGGISPAHGNNPGGSGNNMLGGNPGGGNSNNNGSNTSNASNNNQNPHLSPAAGRLGVPTSMQSNGPSVSSVASSSVPSPATPTLTPTSTATSMSTSVPTSSPAPPAMSPHHSLNSAGPSPGMPNSGPSPLQSPAGPNGPNNNNSNNNNGPMMGQMIPNAVPMQHQQHMGGGPPGHGPGPMPGMGMNQMLPPQQPSHLGPPHPNMMNHPHHPHHHPGGPPPHMMGGPGMHGGPAGMPPHMGGGPNPHMMGGPHGNAGPHMGHGHMGGVPGPGPGPGGMNGPPHPHMSPHHGHPHHHHNPMGGPGPNMFGGGGGGPMGPGGPMGNMGPMGGGPMGGPMGVGPKPMTMGGGKMYPPGQPMVFNPQNPNAPPIYPCGMCHKEENDNDEAVFCESGCNFFFHRTCVGLTEAAFQMLNKEVFAEWCCDKCVSSKHIPMVKFKC
modifications: HA tag

System: pygo null mutant clones in wing discs
Test: Rescue assays in Drosophila pygo null mutant clones
Assay type: in vivo
Settings: for rescue of pygo mutant phenotypes (notches and bristle defects): anterior wing margin of adult flies bearing pygo mutant clones, overexpression; for rescue of senseless expression: overexpression by GAL4 system in pygo null mutant wing disc clones, third instar larvae
Text: To test whether the binding of Pygo to H3K4me is important for its function in vivo, we conducted rescue assays in Drosophila ([de la Roche and Bienz, 2007]). We introduced a point mutation into V757 (in EVND) of Drosophila Pygo, which corresponds to V350 of hPHD that lines its K4me pocket (Figure 4B) and whose mutation drastically reduces its binding to H3K4me3 (Figure 4E). We then generated pygo null mutant clones in wing discs, one of the best-characterized Wingless-responsive tissues whose development depends on Pygo function ([Belenkaya et al., 2002; de la Roche and Bienz, 2007; Kramps et al., 2002; Parker et al., 2002; Thompson et al., 2002]), and we used the GAL4 system to overexpress the Pygo-V757E mutant in these clones, to test its rescue activity in this tissue.
HA-tagged Pygo-V757E was constructed in pUAST, and multiple independent transformant lines were isolated, as described previously for WT HA-Pygo ([Townsley et al., 2004b]). Two different lines were each tested for rescue activity of pygo null mutant clones in the wing disc, as described ([de la Roche and Bienz, 2007]).

Molecule	rescue of pygo mutant phenotypes (notches and bristle defects)	rescue of senseless expression
B1	rescued all pygo mutant phenotypes	restored expression of senseless
B2	WT Pygo but not Pygo-V757E rescued all pygo mutant phenotypes	no rescue whatsoever was observed
